Values of other authors, collected in US20240401145A1, “METHOD FOR PREDICTING THE RESPONSE OF A PATIENT DIAGNOSED WITH CANCER TO TREATMENT AND/OR IMAGING WITH A COMPOUND TARGETING CCK2-R, AND COMPOUND FOR USE IN METHODS OF SELECTIVELY TREATING AND/OR IMAGING CANCER” (Paul Scherrer Institut, priority 2021, published 2024).
Ends that are not written are not given here.

Assays:
[1] = gastrin analogues labeled with a radionuclide such as 111In; reported from WO 2015/067473 A1
[2] = system: transplanted CCKBR-expressing A431 cells; settings: biodistribution in animal models; reported from WO 2015/067473 A1
CCK2-R = biological target: T1, CCK2-R (Homo sapiens, UniProt P32239); settings: known from prior art
T1 sequence (P32239 1-447): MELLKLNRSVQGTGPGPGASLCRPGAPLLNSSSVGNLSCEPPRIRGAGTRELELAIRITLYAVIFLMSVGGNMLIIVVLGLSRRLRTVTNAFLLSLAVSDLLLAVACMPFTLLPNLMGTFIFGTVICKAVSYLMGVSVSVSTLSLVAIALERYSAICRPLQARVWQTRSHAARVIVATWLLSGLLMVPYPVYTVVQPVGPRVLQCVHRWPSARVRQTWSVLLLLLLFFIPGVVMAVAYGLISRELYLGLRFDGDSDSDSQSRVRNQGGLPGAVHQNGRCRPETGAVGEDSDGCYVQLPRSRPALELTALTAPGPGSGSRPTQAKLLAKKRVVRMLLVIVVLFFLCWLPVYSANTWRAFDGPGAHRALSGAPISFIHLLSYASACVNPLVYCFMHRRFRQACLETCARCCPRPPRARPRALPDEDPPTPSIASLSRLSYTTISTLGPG

Substance | chemical stability (resistance to proteolysis and oxidation) [1] | accumulation in the kidneys [2] | uptake in transplanted CCKBR-expressing A431 cells [2] | affinity of binding to CCK2-R (CCK2-R)
DOTA-(DGln)6-Ala-Tyr-Gly-Trp-Nle-Asp-Phe-NH2 [PP-F10N, reference compound] | good | low accumulation | good uptake | 
DOTA-(DGlu)6-Ala-Tyr-Gly-Trp-Nle-Asp-Phe-NH2 [PP-F11N] | good | low accumulation | good uptake | 
minigastrin: small peptide hormone known to bind CCK2-R with high affinity (WLEEEEEAYGWMDF; ends and bridges not checked; UniProt P01350 79-92, looked up) |  |  |  | high affinity
